This note sets out measurements from US20090117124A1 (Pfizer, published 2009).

Positions count from the first letter of the chain named. Numbers in names are those of the source. Some results are limits rather than exact numbers.

Assay [1] concerns the target T1, human IgE (Human myeloma, azide free, Serotec, Cat. No. PHP008X2) (human, UniProt P01854 1-546). The assay can be described thus: cell-based or functional assay.
Assay [2] concerns the target T2, cynomolgus monkey IgE (in cynomolgus serum, Harlan Sera-Lab Ltd) (cynomolgus monkey).
T2 construct: Serum was the source of IgE; eight serum samples; also called cynomolgus IgE; Cyno 1 to Cyno 8 serum samples
Put plainly: capture ELISA, Test 2, Cyno 2. The protocol: (§1) Wells were washed once with 150 μL/well wash buffer (0.05% Tween-20, Sigma, Cat. No. P7949/TBS) then blocked with 150 μL/well 1% BSA (Sigma, Cat. No. A7030) in TBS for 2 hours at room temperature. Wells were washed twice with 150 μL wash buffer. 50 μL human (in-house donors) or cynomolgus serum (Harlan Sera-Lab Ltd, Loughborough) was added from neat to at least 1:16 dilution in 1% BSA/0.05% Tween-20/TBS diluent buffer. […] Wells were incubated for 2 hours at 25° C. before washing (3×150 μL wash buffer). […] Wells were incubated for 1 hour at 25° C. then washed (3×150 μL wash buffer). Streptavidin-HRP (Amersham Bioscience, Cat. No. RPN 1231) diluted 1:1000 in diluent buffer was added to all wells and incubated for 45 minutes at room temperature. Wells were washed (3×150 […] wash buffer). 50 μL OPD (Dako, Cat. No. S2045) was added to all wells and the color allowed to develop for 10 minutes before stopping the reaction with 50 μl 0.6M H₂SO₄ and the absorbance measured at 490 nm.
On the technique in general: ELISA stands for enzyme-linked immunosorbent assay.

Assay [3] deals with T2, cynomolgus monkey IgE (in cynomolgus …). The assay can be described thus: capture ELISA, Test 2, Cyno 3. As to the method:
as §1

Assay [4] has the same target. The assay can be described thus: capture ELISA, Test 2, Cyno 6. As to the method:
as §1

Assay [5] has the same target. The assay can be described thus: capture ELISA, Test 2, Cyno 7. As to the method: as §1
Assay [6] shares this target. The assay can be described thus: capture ELISA, Test 2, Cyno 8. The protocol:
as §1

Assay [7] deals with T3, free IgE in human serum (healthy volunteers, in-house donors) (human, UniProt P01854-1 1-428).
T3 construct: Kept apart from the bought myeloma IgE because it is native serum IgE of single donors; also called serum IgE
T3 sequence (P01854 other isoform, or with tags, fused parts or gaps): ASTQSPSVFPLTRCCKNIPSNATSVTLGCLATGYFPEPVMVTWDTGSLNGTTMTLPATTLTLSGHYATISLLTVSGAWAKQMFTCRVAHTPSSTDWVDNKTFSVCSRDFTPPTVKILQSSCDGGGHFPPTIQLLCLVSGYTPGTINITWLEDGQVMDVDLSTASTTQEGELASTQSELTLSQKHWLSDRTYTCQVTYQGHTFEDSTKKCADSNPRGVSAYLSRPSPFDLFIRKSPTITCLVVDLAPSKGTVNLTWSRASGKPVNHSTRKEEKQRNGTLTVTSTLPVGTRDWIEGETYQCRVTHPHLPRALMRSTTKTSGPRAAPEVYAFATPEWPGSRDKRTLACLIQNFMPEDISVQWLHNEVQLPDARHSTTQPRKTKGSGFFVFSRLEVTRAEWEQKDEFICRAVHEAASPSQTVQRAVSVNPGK
Put plainly: capture ELISA, Test 2, human serum. As to the method: as §1

Assay [8] has as its target T3, free IgE in human serum (healthy …). Put plainly: serum free IgE depletion ELISA; DIN 0155. The protocol: (§2) The next day ELISA plates were washed 1× with 300 μL/well wash buffer (0.05% Tween-20, Sigma, Cat. No. P7949/TBS) then blocked with 150 μL/well 1% BSA (Sigma, Cat. No. A7030) in TBS for 1 hour at room temperature.
The target is the same in assay [9]. The assay can be described thus: serum free IgE depletion ELISA; DIN 0347. As to the method: as §2
The target is the same in assay [10]. The assay can be described thus: serum free IgE depletion ELISA; DIN 0461. As to the method: as §2
The target is the same in assay [11]. The assay can be described thus: serum free IgE depletion ELISA; DIN 0591. As to the method: as §2
The target of assay [12] is T1, human IgE (Human myeloma, azide free, …). The assay can be described thus: inhibition of IgE binding to RBL-2H3 (FcεR1) cells. The protocol:
RBL-2H3 (FcεR1) cells were cultured in MEM-Earles (Invitrogen Cat. No. 2109002) supplemented with 2 mM L-Glutamine (Sigma, Cat. No. G7513), 1 mg/mL Geneticin Liquid (Invitrogen Cat. No. 10131027) and 15% FBS (PAA Laboratories GmbH, Cat. No. A15-043). RBL-2H3 (FcεR1) cells were seeded into sterile 96-well plates (Costar, Fisher Scientific, Cat. No. TKY-521-090S) at 1×10⁵ cells/well and cultured overnight at 37° C., 5% CO₂ in a humidified atmosphere. The next day cells were washed 3× with 150 μL/well wash buffer (10% BSA, Sigma Cat. No A7030, in PBS, Sigma, Cat. No D8537). […] Cells were washed 3× with 150 μL/well wash buffer and then incubated with 50 μL/well streptavidin-HRP (Amersham Bioscience, Cat. No. RPN 1231) diluted 1:250, for 45 minutes. Cells were washed 3× with 150 μL/well wash buffer. 50 μL OPD (Dako, Cat. No. S2045) was added to all wells and the colour allowed to develop for 10 minutes before stopping the reaction with 50 μL 0.6M H₂SO₄ and the absorbance measured at 490 nm.

Assay [13] shares this target. Put plainly: BIAcore 3000, antibody immobilised, full length human IgE injected. As to the method:
An immobilization binding response of 50-600 RU was obtained using CM5 sensor chips (BIAcore™) and 10 mM sodium acetate, pH 5.0 as immobilization buffer. The reference flow cell was activated (with EDC-NHS) and blocked (with ethanolamine) but no protein was immobilized. […] A regeneration step was included after the dissociation phase; the conditions used for the various antibodies are given in Table 17 below.
All sensorgrams were fitted locally using BIA evaluation software 4.1 (BIAcore™) and Scrubber software version 2.0 (BioLogic Software).

T1 sequence (P01854 whole entry): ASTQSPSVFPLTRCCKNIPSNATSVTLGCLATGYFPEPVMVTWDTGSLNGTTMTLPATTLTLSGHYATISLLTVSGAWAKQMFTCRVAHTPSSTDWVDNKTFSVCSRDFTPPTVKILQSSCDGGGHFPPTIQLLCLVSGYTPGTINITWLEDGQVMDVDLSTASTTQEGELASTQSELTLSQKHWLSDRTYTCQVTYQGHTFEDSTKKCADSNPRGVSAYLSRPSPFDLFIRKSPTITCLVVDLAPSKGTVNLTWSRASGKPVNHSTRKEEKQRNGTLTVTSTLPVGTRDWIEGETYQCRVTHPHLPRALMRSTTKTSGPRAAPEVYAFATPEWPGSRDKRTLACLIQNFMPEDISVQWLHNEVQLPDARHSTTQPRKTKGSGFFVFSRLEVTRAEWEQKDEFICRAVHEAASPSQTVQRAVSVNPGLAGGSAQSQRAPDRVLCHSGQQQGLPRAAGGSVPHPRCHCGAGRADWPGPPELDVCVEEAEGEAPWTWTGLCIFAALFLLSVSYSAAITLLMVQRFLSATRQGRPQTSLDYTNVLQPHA

B1: 5.948.1 (recombinant) (antibody, human IgG2, kappa, V domains shown)
VH: QVQLVQSGAEVKKPGASVKVSCKASGYTFTSYDINWVRQATGQGLEWMGWMDPNSGNTGYAQKFQGRVTMTRNTSISTAYMELSSLRSEDTAVYYCARGHYDSDGYYSFSGMDVWGQGTTVTVSS
VL: not shown
notes: Human IgG2 kappa; leader omitted; Two batches were tested in some assays; also called recombinant 5.948.1; 5.948.1 - Batch 1 (762.8 µg/mL)
Turning to B1, in assay [1], the “IC50, inhibition of IgE-mediated degranulation (histamine release) of RBL-2H3 (FcεR1) cells; Batch 1” value was 0.36 µg/mL. Moreover, the “IC50, inhibition of IgE-mediated degranulation (histamine release) of RBL-2H3 (FcεR1) cells; Batch 2” value in [1] amounted to 0.123 µg/mL. For the same molecule, the IgE concentration detected was found to be 328 ng/mL in assay [2]; 309 ng/mL in assay [3]; 62 ng/mL in assay [4]; 0 ng/mL in assay [5]; 56 ng/mL in assay [6]; 431 ng/mL in assay [7]. The “IC25 ng/mL” value worked out at 1.81 µg/mL in [8], 4.92 µg/mL in assay [9], 1.47 µg/mL in [10] and 2.35 µg/mL in [11]. Besides, the half-maximal inhibitory concentration (IC50) (as a rule, the concentration at which inhibition is half-maximal) in [12] was under 0.5 µg/mL. In addition, in [13], binding was put at a Kd of 1320 pM. For the same molecule, the koff (in general, a measure of how fast the partners let go of each other) in [13] is 3.11e-05 s⁻¹. Further, in [13], the kon (usually the rate constant with which the complex forms) was 23600 M⁻¹ s⁻¹.

B2: 5.948.1 Hc-H100Y (antibody, human IgG2, kappa, V domains shown)
VH: B1 VH with H100Y
VL: not shown
notes: Human IgG2 kappa; leader omitted; also called 5.948.1 (H100Y); 5.948.1 H100Y
Turning to B2, in assay [1], the “IC50, inhibition of IgE-mediated degranulation (histamine release) of RBL-2H3 (FcεR1) cells” value came out at 0.0121 µg/mL. Besides, the IgE concentration detected in assay [2] is 199 ng/mL; in assay [3], 178 ng/mL; in [4], 39 ng/mL; in [5], 0 ng/mL; in assay [6], 36 ng/mL; in assay [7] it was 408 ng/mL. The “IC25 ng/mL” value in assay [8] came out at 0.34 µg/mL; in assay [9], 1.33 µg/mL; in assay [10], 0.34 µg/mL; in assay [11], 0.55 µg/mL. The molecule further gave an IC50 in assay [12] of under 0.5 µg/mL. Besides, in [13], the Kd (usually the concentration at which binding is half-saturated) came to 159 pM. The off-rate constant (koff) in [13] came to 2.42e-05 s⁻¹. The kon in assay [13] stood at 151000 M⁻¹ s⁻¹.
